1 molecule from publication PMC3070410 can be followed below.

The series deals with T1, RepA hexameric replicative helicase (plasmid RSF1010, UniProt P20356 1-279).
T1 sequence: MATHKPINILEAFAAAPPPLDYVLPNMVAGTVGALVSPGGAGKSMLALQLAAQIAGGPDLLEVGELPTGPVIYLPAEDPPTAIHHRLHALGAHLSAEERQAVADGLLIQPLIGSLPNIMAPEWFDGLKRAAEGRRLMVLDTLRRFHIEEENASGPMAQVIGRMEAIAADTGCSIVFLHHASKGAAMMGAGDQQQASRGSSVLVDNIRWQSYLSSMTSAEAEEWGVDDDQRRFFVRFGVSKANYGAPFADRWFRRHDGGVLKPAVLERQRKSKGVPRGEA
As to the kind of experiment: stopped-flow fluorescence anisotropy.

As for TTTTTTTTTTTTTTTTTTTT (ssDNA, 3' amino six-carbon linker residue) [dT(pT)19-Fl-3' (21-mer)], the binding result is listed as “binds”.
